Results on one molecule are retold here after patent US20110256153A1 (IMMUNOGEN, published 2011).

One test addresses T1, macaque CD37 (macaque, UniProt P11049 1-277 (human entry)).
T1 construct: Expressed on 300-19 cells transfected with pSRa-CD37mac (300-19/CD37mac cells); also called macaca CD37; macaque derived CD37 antigen
T1 chain: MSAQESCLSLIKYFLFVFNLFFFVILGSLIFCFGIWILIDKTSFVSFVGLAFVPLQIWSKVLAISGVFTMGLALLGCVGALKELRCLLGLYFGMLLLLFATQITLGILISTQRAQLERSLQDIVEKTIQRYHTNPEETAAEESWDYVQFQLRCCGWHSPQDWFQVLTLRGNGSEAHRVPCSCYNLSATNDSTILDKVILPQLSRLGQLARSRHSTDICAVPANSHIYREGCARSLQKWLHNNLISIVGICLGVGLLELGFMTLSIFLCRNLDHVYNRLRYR
The test can be described thus: flow cytometry, 300-19/CD37mac cells. In a few lines:
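300-19 cells transfected with macaque CD37, alongside non-transfected 300-19 cells (1×10⁵ per sample), incubated 3 h with purified antibodies in RPMI-1640 with 2% normal goat serum. Bound antibody detected with FITC-conjugated anti-mouse or anti-human secondary for 1 h. Cells fixed in 1% formaldehyde before flow cytometry.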

The target of another test is T2, hCD37-M3 (human/murine chimera, UniProt P11049 1-281).
T2 construct: stably expressed on 300-19 cells; also called hCD37-M3 variant
T2 chain: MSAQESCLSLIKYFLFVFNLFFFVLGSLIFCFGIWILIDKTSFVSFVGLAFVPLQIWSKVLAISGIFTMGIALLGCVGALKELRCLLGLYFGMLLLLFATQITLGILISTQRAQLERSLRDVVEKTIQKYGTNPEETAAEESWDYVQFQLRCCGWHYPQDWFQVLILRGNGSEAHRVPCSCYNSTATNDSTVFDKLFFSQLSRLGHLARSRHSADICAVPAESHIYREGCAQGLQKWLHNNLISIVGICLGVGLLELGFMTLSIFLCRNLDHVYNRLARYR
Nature of the test: flow cytometry, 300-19 cells expressing hCD37-M3, 1.5 µg/mL antibody. How it is done:
(§1) Binding specificity was tested by flow cytometry using purified antibodies. […] All murine antibodies were incubated for 3 h with either CD37-expressing 300-19 cells or the non-transfected 300-19 cells (1×10⁵ cells per sample) in 100 μL FACS buffer (RPMI-1640 medium supplemented with 2% normal goat serum). Then, the cells were pelleted, washed, and incubated for 1 h with 100 μL of FITC-conjugated goat anti-mouse IgG-antibody (Jackson Laboratory, 6 μg/mL in FACS buffer). The cells were pelleted again, washed with FACS buffer and resuspended in 200 μL of PBS containing 1% formaldehyde. Samples were acquired using a FACSCalibur flow cytometer with the HTS multiwell sampler or a FACS array flow cytometer and analyzed using CellQuest Pro (all from BD Biosciences, San Diego, US).
Binding of various CD37 antibodies to cells expressing human CD37 wildtype and variants was analyzed by flow cytometry using 1.5 μg/mL of each antibody. The isolated antibodies of this invention were compared to commercially available CD37 antibody WR17, as well as the TRU-016 SMIP. […] Likewise, all antibodies tested bound the hCD37-M3 variant (FIG. 18B). In contrast, the isolated antibodies of this invention bound the hCD37-M1 variant, while TRU-016 and WR17 were unable to bind hCD37-M1 variant (FIG. 19A). The CD37-50 and CD37-51 antibodies and TRU-016 were also able to bind the hCD37-M45 variant. […] In contrast, the CD37-3, CD37-12, CD37-38, CD37-56 and CD37-57 antibodies require at least one of the AA residues in the hCD37-M45 variant that were changed to the corresponding murine AA residues for binding to the CD37 antigen.
On the technique in general: Flow cytometry measures light scatter and fluorescence of single cells or particles in a stream.

In test [1] the target is T3, human CD37 (human, UniProt P11049 1-278).
T3 construct: Tetraspanin antigen; Expressed on 300-19 cells transfected with pSRa-CD37 (entire CDS) or endogenous on WSU-DLCL-2, BJAB and Ramos lymphoma cells; also called CD37 antigen; human CD37 wildtype
T3 sequence: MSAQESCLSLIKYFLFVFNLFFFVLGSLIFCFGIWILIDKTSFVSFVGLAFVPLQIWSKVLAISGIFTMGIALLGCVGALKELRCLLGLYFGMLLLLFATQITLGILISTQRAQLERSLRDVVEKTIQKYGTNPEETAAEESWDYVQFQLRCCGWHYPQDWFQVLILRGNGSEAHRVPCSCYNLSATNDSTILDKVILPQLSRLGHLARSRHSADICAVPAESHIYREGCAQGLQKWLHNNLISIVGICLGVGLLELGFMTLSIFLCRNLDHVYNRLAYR
Nature of the test: flow cytometry titration on WSU-DLCL-2 cells; EC50 taken as apparent Kd. The protocol: as §1
To verify that the antibodies can also bind to endogenously expressed CD37, binding experiments were performed with CD37-positive WSU-DLCL-2 lymphoma cells and the muCD37-3, muCD37-12, muCD37-8, muCD37-10 or muCD37-14 antibodies. WSU-DLCL-2 cells were incubated with varying concentrations of murine antibodies and processed as described above for flow cytometry analysis. Data analysis was performed using CellQuest Pro (BD Biosciences, San Diego, US) and for each sample the mean fluorescence intensity for FL1 (MFI) was exported and plotted against the antibody concentration in a semi-log plot (FIG. 3). […]

Test [2] concerns the target T3, human CD37. Nature of the test: competition flow cytometry on BJAB cells; competitor PE-labeled muCD37-3 (1 nM). How it is done: Flow cytometry binding assays using BJAB cells and a competitive binding format were used to evaluate binding affinity of chimeric and humanized versions of CD37-3. BJAB cells were incubated with a 1 nM concentration of PE-labeled muCD37-3 antibody and competition was measured by adding varying amounts of muCD37-3, chCD37-3, huCD37-3v1.0 or huCD37-3v1.01. The samples were incubated for 3 hrs at 4° C. Then, the cells were pelleted, washed with FACS buffer and resuspended in 200 μL of PBS containing 1% formaldehyde. Samples were acquired using a FACSCalibur flow cytometer with the HTS multiwell sampler and analyzed using CellQuest Pro (all from BD Biosciences, San Diego, US). The resulting mean PE fluorescence was plotted against the amount of competing antibody used in a semi-log plot. FIG. 9B depicts the dose-response curves generated by non-linear regression for each antibody. The value for the apparent dissociation constant (Kd) of each antibody was calculated using GraphPad Prism v4 (GraphPad software, San Diego, Calif.).

As a reminder, the EC50 is the midpoint of the concentration-response curve. Read a low EC50 as higher potency in that assay.

B1: muCD37-3 (antibody, mouse IgG2a, kappa)
heavy: QVQVKESGPGLVAPSQSLSITCTVSGFSLTTSGVSWVRQPPGKGLEWLGVIWGDGSTNYHSALKSRLSIKKDHSKSQVFLKLNSLQTDDTATYYCAKGGYSLAHWGQGTLVTVSAAKTTAPSVYPLAPVCGDTTGSSVTLGCLVKGYFPEPVTLTWNSGSLSSGVHTFPAVLQSDLYTLSSSVTVTSSTWPSQSITCNVAHPASSTKVDKKIEPRGPTIKPCPPCKCPAPNLLGGPSVFIFPPKIKDVLMISLSPIVTCVVVDVSEDDPDVQISWFVNNVEVHTAQTQTHREDYNSTLRVVSALPIQHQDWMSGKEFKCKVNNKDLPAPIERTISKPKGSVRAPQVYVLPPPEEEMTKKQVTLTCMVTDFMPEDIYVEWTNNGKTELNYKNTEPVLDSDGSYFMYSKLRVEKKNWVERNSYSCSVVHEGLHNHHTTKSFSRTPGK
light: DIQMTQSPASLSVSVGETVTITCRASENIRSNLAWYQQKQGKSPQLLVNVATNLADGVPSRFSGSGSGTQYSLKINSLQSEDFGTYYCQHYWGTTWTFGGGTKLEIKRADAAPTVSIFPPSSEQLTSGGASVVCFLNNFYPKDINVKWKIDGSERQNGVLNSWTDQDSKDSTYSMSSTLTLTKDEYERHNSYTCEATHKTSTSPIVKSFNRNEC
notes: Murine hybridoma antibody; also called murine CD37-3 antibody; muCD37-3-PE
For B1, the binding result with macaque CD37 is on record as “no binding”; with hCD37-M3, “binds”. In addition, the Kd in the test with human CD37 [1] was determined as 0.52 nM. Besides, a half-maximal response with human CD37 [2] (EC50) required 0.8 nM.
